Test [1] has as its target FlhA from the lateral flagella of Vibrio parahaemolyticus (Vibrio parahaemolyticus). Put plainly: cryo-EM structure; purified full-length protein at 0.8-1 mg/ml in TBS with 0.01% LMNG; single particle analysis in Relion; C9 symmetry imposed for Vp-FlhA, D9 for Ye-SctV; only the cytoplasmic domain resolved.
Test [2] has as its target SctV from Yersinia enterocolitica (Yersinia enterocolitica). Described as above.

Broadly, the stoichiometry N is a count of units in the complex or per binding partner.

With “FlhA from the lateral flagella of Vibrio parahaemolyticus (natural protein)”, the stoichiometry N in test [1] was 9.
Regarding “SctV from Yersinia enterocolitica (natural protein)”, the stoichiometry N in test [2] turned out to be 9.

For the origin of these results see article PMC8213127.
